Entries after “also recorded” stand apart in the source; their conditions may differ.
Legend:
ADA-deficient SCID = assay: Phase I/II clinical trial of autologous CD34+ cells transduced with EFS-ADA lentiviral vector; assay type: in vivo, human; conditions: weight adjusted dose prior to reinfusion
Source text: For the non-controlled, non-randomised Phase I/II clinical trial, to assess the safety and efficacy of autologous transplantation of CD34+ cells from ADA-deficient SCID infants following human ADA cDNA transfer by the EFS-ADA lentiviral vector, subjects received the infusion of their autologous, transduced cells following marrow cytoreduction with busulfan.
Patients were selected on the basis of inclusion and exclusion criteria detailed below. A back-up harvest was retained in case of failure of reconstitution following conditioning and re-infusion of transduced cells. For the transduction protocol, CD34+ cells were purified from G-CSF mobilised PBSCs recovered by leukapheresis (Plerixafor could be added to enhance mobilization), whenever possible or from bone marrow harvested under general anaesthetic. Back up cells of 3×10^6 CD34+/kg were stored from a single procedure if sufficient cell counts were available (and if not previously stored). The remaining CD34+ cells were taken forward for transduction. […] After purification, CD34+ cells were immediately transduced with the lentiviral vector, then evaluated for sterility, cell count, and viability, and immediately infused into patients. Several other tests for safety including testing for RCLs were performed on reinfused cells and results recorded retrospectively. […]

ADA-SCID patients = conditions: cited from earlier work
ADA−/− mice = assay: Reconstitution of lethally irradiated ADA−/− mice with transduced lin-ve cells, analysed after 12 weeks; conditions: mouse, in vivo
Source text: Early models of ADA deficient mice were limited by embryonic or peri-natal lethality as a result of severe hepatocellular and pulmonary damage. A two stage transgenic strategy in which ADA expression is restricted to trophoblasts rescues ADA null mice from pre- and peri-natal lethality and allows post-natal study of mice lacking ADA expression. In this model, many features of the human disease are accurately represented. Mice show abnormalities of thymic architecture with a significant block in thymocyte development at the CD4-CD8- double negative stage. […] In the periphery, there is a profound lymphopaenia with a severe T, B and NK cell deficiency that is seen in humans together with abnormalities in splenic lymphoid architecture and a paucity of splenic T cell populations. Murine ADA deficiency also manifests a number of non-immunological abnormalities including lung, renal, costochondral and neurological changes. Pulmonary problems are present in mice from ˜postnatal day 12 and are associated with significant lung inflammatory changes, eventually leading to the death of mice by postnatal day 22 from pulmonary insufficiency, unless early treatment is initiated. […] Mice were analysed after 12 weeks and compared with ADA−/− mice, mice that had undergone wild type transplant experiments (WT) or mice that had been treated with enzyme replacement therapy alone. […]

Molecule | toxicities of conditioning (ADA-deficient SCID) | overall probability of surviving 20 years on ERT (ADA-SCID patients; estimated) [%] | enzyme activity on a ml to ml basis relative to packed erythrocytes (ADA-SCID patients; in vivo) [times] | patients developing antibodies against bovine epitopes (ADA-SCID patients; in vivo) [%] | probability of surviving the next 12 years (ADA-SCID patients; patient alive 6 months after starting ERT) | T cells in the mononuclear fraction of peripheral blood (ADA−/− mice)
CS(=O)(=O)OCCCCOS(C)(=O)=O [Busulfan] | No toxicities; also recorded: without any significant toxicity | – | – | – | – | –
PEG-ADA: bovine form of ADA conjugated to polyethylene glycol; enzyme replacement therapy (conjugate, UniProt P56658 2-363, looked up, PEG conjugate (pegademase bovine), bovine form of ADA conjugated to polyethylene glycol; enzyme replacement therapy) Adenosine deaminase: AQTPAFNKPKVELHVHLDGAIKPETILYYGRKRGIALPADTPEELQNIIGMDKPLSLPEFLAKFDYYMPAIAGCREAVKRIAYEFVEMKAKDGVVYVEVRYSPHLLANSKVEPIPWNQAEGDLTPDEVVSLVNQGLQEGERDFGVKVRSILCCMRHQPSWSSEVVELCKKYREQTVVAIDLAGDETIEGSSLFPGHVKAYAEAVKSGVHRTVHAGEVGSANVVKEAVDTLKTERLGHGYHTLEDATLYNRLRQENMHFEVCPWSSYLTGAWKPDTEHPVVRFKNDQVNYSLNTDDPLIFKSTLDTDYQMTKNEMGFTEEEFKRLNINAAKSSFLPEDEKKELLDLLYKAYGMPSPASAEQCL | – | 78 | ~1800 | ~50 | about 90% | marked increase in T cell recovery

From patent publication US10583180B2, “Method for treating adenosine deaminase severe combined imunodeficiency” (UCL Business PLC, priority 2015, dated 2020)
